In US20260167721A1 (ABLEXIS, published 2026):

B1: CD3 × CD33-BspAb48 (bispecific antibody)
chain 1: QVTLKESGPGILQPSQTLSLTCSFSGFSLSTFGMGVGWIRQPSGKCLEWLAHIWWDDDKYYNPALKSRLTISKDTSKNQVFLKIANVDTADTATYYCARLGYYPYWFFDVWGTGTTVTVSSGGGGSGGGGSGGGGSGGGGSNFMLTQPHSVSESPGKTVTIACTRSSGSIASNYVQWYQQRPGSSPTTVIYEDNQRPSGVPDRFSGSIDSSSNSASLTISGLKTEDEADYYCQSYDSSNQVFGCGTKLTVLDKTHTCPPCPAPEFEGGPSVFLFPPKPKDTLMISRTPEVTCVVVDVSHEDPEVKFNWYVDGVEVHNAKTKPREEQYNSTYRVVSVLTVLHQDWLNGKEYKCKVSNKALPASIEKTISKAKGQPREPQVYTLPPCREEMTKNQVSLWCLVKGFYPSDIAVEWESNGQPENNYKTTPPVLDSDGSFFLYSKLTVDKSRWQQGNVFSCSVMHEALHNHYTQKSLSLSPGK
chain 2: EVQLVQSGAEVKKPGSSVKVSCKASGYTITDSNIHWVRQAPGQSLEWIGYIYPYNGGTDYNQKFKNRATLTVDNPTNTAYMELSSLRSEDTAFYYCVNGNPWLAYWGQGTLVTVSSASTKGPSVFPLAPSSKSTSGGTAALGCLVKDYFPEPVTVSWNSGALTSGVHTFPAVLQSSGLYSLSSVVTVPSSSLGTQTYICNVNHKPSNTKVDKRVEPKSCDKTHTCPPCPAPEFEGGPSVFLFPPKPKDTLMISRTPEVTCVVVDVSHEDPEVKFNWYVDGVEVHNAKTKPREEQYNSTYRVVSVLTVLHQDWLNGKEYKCKVSNKALPASIEKTISKAKGQPREPQVCTLPPSREEMTKNQVSLSCAVKGFYPSDIAVEWESNGQPENNYKTTPPVLDSDGSFFLVSKLTVDKSRWQQGNVFSCSVMHEALHNRFTQKSLSLSPGK
chain 3: DIQLTQSPSTLSASVGDRVTITCRASESLDNYGIRFLTWFQQKPGKAPKLLMYAASNQGSGVPSRFSGSGSGTEFTLTISSLQPDDFATYYCQQTKEVPWSFGQGTKVEVKRTVAAPSVFIFPPSDEQLKSGTASVVCLLNNFYPREAKVQWKVDNALQSGNSQESVTEQDSKDSTYSLSSTLTLSKADYEKHKVYACEVTHQGLSSPVTKSFNRGEC
B2: CD3 × CD33-BspAb61 (bispecific antibody)
scFv-Fc: NFMLTQPHSVSESPGKTVTISCTRSSGSIASNYVQWYQQRPGSSPTTVIYEDNQRPSGVPDRFSGSIDSSSNSASLTISGLKTEDEADYYCQSFDNSNRVFGCGTKLTVLGGGGSGGGGSGGGGSGGGGSEVQLVESGGGLVKPGGSLRLSCAASGFTFSRYSMNWVRQAPGKCLKWVSSISSSGSYKYYADSVKGRFTISRDNAKNSLYLQMNSLRAEDTAVYYCAREPPTLGMDYWGQGTLVTVSSGGGGSDKTHTCPPCPAPEFEGGPSVFLFPPKPKDTLMISRTPEVTCVVVDVSHEDPEVKFNWYVDGVEVHNAKTKPREEQYNSTYRVVSVLTVLHQDWLNGKEYKCKVSNKALPASIEKTISKAKGQPREPQVYTLPPCREEMTKNQVSLWCLVKGFYPSDIAVEWESNGQPENNYKTTPPVLDSDGSFFLYSKLTVDKSRWQQGNVFSCSVMHEALHNHYTQKSLSLSPGK
heavy: EVQLVQSGAEVKKPGSSVKVSCKASGYTITDSNIHWVRQAPGQSLEWIGYIYPYNGGTDYNQKFKNRATLTVDNPTNTAYMELSSLRSEDTAFYYCVNGNPWLAYWGQGTLVTVSSASTKGPSVFPLAPSSKSTSGGTAALGCLVKDYFPEPVTVSWNSGALTSGVHTFPAVLQSSGLYSLSSVVTVPSSSLGTQTYICNVNHKPSNTKVDKRVEPKSCDKTHTCPPCPAPEFEGGPSVFLFPPKPKDTLMISRTPEVTCVVVDVSHEDPEVKFNWYVDGVEVHNAKTKPREEQYNSTYRVVSVLTVLHQDWLNGKEYKCKVSNKALPASIEKTISKAKGQPREPQVCTLPPSREEMTKNQVSLSCAVKGFYPSDIAVEWESNGQPENNYKTTPPVLDSDGSFFLVSKLTVDKSRWQQGNVFSCSVMHEALHNRFTQKSLSLSPGK
light: DIQLTQSPSTLSASVGDRVTITCRASESLDNYGIRFLTWFQQKPGKAPKLLMYAASNQGSGVPSRFSGSGSGTEFTLTISSLQPDDFATYYCQQTKEVPWSFGQGTKVEVKRTVAAPSVFIFPPSDEQLKSGTASVVCLLNNFYPREAKVQWKVDNALQSGNSQESVTEQDSKDSTYSLSSTLTLSKADYEKHKVYACEVTHQGLSSPVTKSFNRGEC
B3: CD3 × CD33-BspAb66 (bispecific antibody, human IgG1, kappa)
scFv: EVQLVESGGGLVQPGRSLRLSCAASGFTFDDYAMHWVRQAPGKGLEWVSGISWNSGSIGYADSVKGRFTISRDNAKNSLYLQMNSLRAEDTALYYCAKDSRGYGDYRLGGAYWGQGTLVTVSSGGGGSGGGGSGGGGSGGGGSEIVMTQSPATLSVSPGERATLSCRASQSVSSNLAWYQQKPGQAPRLLIYGASTRATGIPARFSGSGSGTEFTLTISSLQSEDFAVYYCQQYNNWPWTFGQGTKVEIKTSGPGGPDKTHTCPPCPAPEFEGGPSVFLFPPKPKDTLMISRTPEVTCVVVDVSHEDPEVKFNWYVDGVEVHNAKTKPREEQYNSTYRVVSVLTVLHQDWLNGKEYKCKVSNKALPASIEKTISKAKGQPREPQVYTLPPCREEMTKNQVSLWCLVKGFYPSDIAVEWESNGQPENNYKTTPPVLDSDGSFFLYSKLTVDKSRWQQGNVFSCSVMHEALHNHYTQKSLSLSPGK
heavy: EVQLVQSGAEVKKPGSSVKVSCKASGYTITDSNIHWVRQAPGQSLEWIGYIYPYNGGTDYNQKFKNRATLTVDNPTNTAYMELSSLRSEDTAFYYCVNGNPWLAYWGQGTLVTVSSASTKGPSVFPLAPSSKSTSGGTAALGCLVKDYFPEPVTVSWNSGALTSGVHTFPAVLQSSGLYSLSSVVTVPSSSLGTQTYICNVNHKPSNTKVDKRVEPKSCDKTHTCPPCPAPEFEGGPSVFLFPPKPKDTLMISRTPEVTCVVVDVSHEDPEVKFNWYVDGVEVHNAKTKPREEQYNSTYRVVSVLTVLHQDWLNGKEYKCKVSNKALPASIEKTISKAKGQPREPQVCTLPPSREEMTKNQVSLSCAVKGFYPSDIAVEWESNGQPENNYKTTPPVLDSDGSFFLVSKLTVDKSRWQQGNVFSCSVMHEALHNRFTQKSLSLSPGK
light: DIQLTQSPSTLSASVGDRVTITCRASESLDNYGIRFLTWFQQKPGKAPKLLMYAASNQGSGVPSRFSGSGSGTEFTLTISSLQPDDFATYYCQQTKEVPWSFGQGTKVEVKRTVAAPSVFIFPPSDEQLKSGTASVVCLLNNFYPREAKVQWKVDNALQSGNSQESVTEQDSKDSTYSLSSTLTLSKADYEKHKVYACEVTHQGLSSPVTKSFNRGEC
notes: also called CD3δε-specific control antibody scFv-Fc knob/TM x gemtuzumab
B4: CD3 × CD33-BspAb50 (bispecific antibody)
scFv-Fc: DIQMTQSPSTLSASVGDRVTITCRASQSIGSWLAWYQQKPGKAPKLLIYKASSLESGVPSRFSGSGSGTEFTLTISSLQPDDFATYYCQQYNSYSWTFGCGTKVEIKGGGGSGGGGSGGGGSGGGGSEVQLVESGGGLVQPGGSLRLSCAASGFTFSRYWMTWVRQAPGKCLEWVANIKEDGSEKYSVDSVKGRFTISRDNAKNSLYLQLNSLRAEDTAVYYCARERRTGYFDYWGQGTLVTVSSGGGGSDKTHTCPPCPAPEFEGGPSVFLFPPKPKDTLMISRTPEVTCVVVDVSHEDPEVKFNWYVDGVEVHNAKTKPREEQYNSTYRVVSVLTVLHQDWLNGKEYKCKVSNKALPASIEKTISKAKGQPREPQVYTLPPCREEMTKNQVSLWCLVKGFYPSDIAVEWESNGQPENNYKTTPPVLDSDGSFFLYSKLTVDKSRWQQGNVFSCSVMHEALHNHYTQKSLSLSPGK
heavy: EVQLVQSGAEVKKPGSSVKVSCKASGYTITDSNIHWVRQAPGQSLEWIGYIYPYNGGTDYNQKFKNRATLTVDNPTNTAYMELSSLRSEDTAFYYCVNGNPWLAYWGQGTLVTVSSASTKGPSVFPLAPSSKSTSGGTAALGCLVKDYFPEPVTVSWNSGALTSGVHTFPAVLQSSGLYSLSSVVTVPSSSLGTQTYICNVNHKPSNTKVDKRVEPKSCDKTHTCPPCPAPEFEGGPSVFLFPPKPKDTLMISRTPEVTCVVVDVSHEDPEVKFNWYVDGVEVHNAKTKPREEQYNSTYRVVSVLTVLHQDWLNGKEYKCKVSNKALPASIEKTISKAKGQPREPQVCTLPPSREEMTKNQVSLSCAVKGFYPSDIAVEWESNGQPENNYKTTPPVLDSDGSFFLVSKLTVDKSRWQQGNVFSCSVMHEALHNRFTQKSLSLSPGK
light: DIQLTQSPSTLSASVGDRVTITCRASESLDNYGIRFLTWFQQKPGKAPKLLMYAASNQGSGVPSRFSGSGSGTEFTLTISSLQPDDFATYYCQQTKEVPWSFGQGTKVEVKRTVAAPSVFIFPPSDEQLKSGTASVVCLLNNFYPREAKVQWKVDNALQSGNSQESVTEQDSKDSTYSLSSTLTLSKADYEKHKVYACEVTHQGLSSPVTKSFNRGEC
B5: CD3 × CD33-BspAb62 (bispecific antibody)
scFv-Fc: NFMLTQPHSVSESPGKTVTISCTRSSGSIASNYVQWYQQRPGSSPTTVIYEDNQRPSGVPDRFSGSIDSSSNSASLTISGLKTEDEADYYCQSYDSSNHVFGCGTKLTVLGGGGSGGGGSGGGGSGGGGSEVQLVESGGGLVQPGGSLRLSCAASGFTFSRYSMNWVRQAPGKCLEWVSYISSSSSSIYYADSVKGRFTISRDNAKNSLYLQMNSLRDEDTAVYYCARDRRATLDYWGQGTLVTVSSGGGGSDKTHTCPPCPAPEFEGGPSVFLFPPKPKDTLMISRTPEVTCVVVDVSHEDPEVKFNWYVDGVEVHNAKTKPREEQYNSTYRVVSVLTVLHQDWLNGKEYKCKVSNKALPASIEKTISKAKGQPREPQVYTLPPCREEMTKNQVSLWCLVKGFYPSDIAVEWESNGQPENNYKTTPPVLDSDGSFFLYSKLTVDKSRWQQGNVFSCSVMHEALHNHYTQKSLSLSPGK
heavy: EVQLVQSGAEVKKPGSSVKVSCKASGYTITDSNIHWVRQAPGQSLEWIGYIYPYNGGTDYNQKFKNRATLTVDNPTNTAYMELSSLRSEDTAFYYCVNGNPWLAYWGQGTLVTVSSASTKGPSVFPLAPSSKSTSGGTAALGCLVKDYFPEPVTVSWNSGALTSGVHTFPAVLQSSGLYSLSSVVTVPSSSLGTQTYICNVNHKPSNTKVDKRVEPKSCDKTHTCPPCPAPEFEGGPSVFLFPPKPKDTLMISRTPEVTCVVVDVSHEDPEVKFNWYVDGVEVHNAKTKPREEQYNSTYRVVSVLTVLHQDWLNGKEYKCKVSNKALPASIEKTISKAKGQPREPQVCTLPPSREEMTKNQVSLSCAVKGFYPSDIAVEWESNGQPENNYKTTPPVLDSDGSFFLVSKLTVDKSRWQQGNVFSCSVMHEALHNRFTQKSLSLSPGK
light: DIQLTQSPSTLSASVGDRVTITCRASESLDNYGIRFLTWFQQKPGKAPKLLMYAASNQGSGVPSRFSGSGSGTEFTLTISSLQPDDFATYYCQQTKEVPWSFGQGTKVEVKRTVAAPSVFIFPPSDEQLKSGTASVVCLLNNFYPREAKVQWKVDNALQSGNSQESVTEQDSKDSTYSLSSTLTLSKADYEKHKVYACEVTHQGLSSPVTKSFNRGEC

Key:
[1] = molecular target: T1, CD33 on KILR-HL60 cells (UniProt P20138 18-364, limits assumed); experiment: flow cytometry on KILR-HL60 (CD33 expressing) cells, antibody at 10 ug/ml
T1 construct: whole, on cells; Target of the gemtuzumab arm; also called CD33 expressing cells
T1 sequence (P20138 18-364 limits assumed): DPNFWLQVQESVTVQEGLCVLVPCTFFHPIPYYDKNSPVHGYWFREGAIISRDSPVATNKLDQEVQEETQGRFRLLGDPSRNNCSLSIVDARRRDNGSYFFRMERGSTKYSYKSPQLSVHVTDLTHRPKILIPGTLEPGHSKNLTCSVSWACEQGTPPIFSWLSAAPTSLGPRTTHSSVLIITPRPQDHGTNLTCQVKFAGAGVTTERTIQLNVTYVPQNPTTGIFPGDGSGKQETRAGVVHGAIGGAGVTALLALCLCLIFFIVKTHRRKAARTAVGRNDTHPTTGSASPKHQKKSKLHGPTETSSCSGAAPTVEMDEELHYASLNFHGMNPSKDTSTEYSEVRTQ

[2] = molecular target: T1, CD33 on KILR-HL60 cells; experiment: flow cytometry on KILR-HL60 (CD33 expressing) cells, antibody at 1 ug/ml
[3] = molecular target: T2, CD3 on Jurkat wild-type cells (UniProt P07766 23-207; P04234 22-171; P09693 23-182); experiment: flow cytometry on Jurkat WT cells, antibody at 1 ug/ml
T2 construct: whole, on cells; also called Jurkat WT
T2 sequence (P07766 23-207, chain 1 of 3): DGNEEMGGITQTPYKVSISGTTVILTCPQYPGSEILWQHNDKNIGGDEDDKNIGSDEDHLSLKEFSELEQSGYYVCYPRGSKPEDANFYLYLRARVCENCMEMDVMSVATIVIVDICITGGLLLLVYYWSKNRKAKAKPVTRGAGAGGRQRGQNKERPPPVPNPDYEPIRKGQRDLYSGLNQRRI
T2 sequence (P04234 22-171, chain 2 of 3): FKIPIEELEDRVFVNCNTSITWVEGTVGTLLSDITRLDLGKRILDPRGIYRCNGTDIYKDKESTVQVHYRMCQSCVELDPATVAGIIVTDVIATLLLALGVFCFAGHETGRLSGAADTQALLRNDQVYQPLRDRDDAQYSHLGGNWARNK
T2 sequence (P09693 23-182, chain 3 of 3): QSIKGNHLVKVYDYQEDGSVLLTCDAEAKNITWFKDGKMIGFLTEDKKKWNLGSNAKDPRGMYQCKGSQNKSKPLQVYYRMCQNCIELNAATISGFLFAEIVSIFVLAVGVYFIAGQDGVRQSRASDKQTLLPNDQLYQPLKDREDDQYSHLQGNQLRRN

[4] = molecular target: T2, CD3 on Jurkat wild-type cells; experiment: flow cytometry on Jurkat WT cells, antibody at 10 ug/ml

Binder	flow cytometry signal [1]	flow cytometry signal [2]	flow cytometry signal [3]	flow cytometry signal [4]
B1	483000	566000	4140	10800
B2	538000	621000	95600	84800
B3	499000	569000	6660	23100
B4	465000	475000	9700	33900
B5	595000	295000	62500	59000
